± gives the uncertainty stated by the source.
Assay: self-splicing fitness, log relative to wild type (ln ratio); higher = more splicing; Tetrahymena group I intron in knt gene, E. coli kanamycin selection, DiMSum; sequences stand for … in CUCUCU…GGAGGGAAAAGUUAUCAGGCAUGCACCUGGUAGCUAGUCUUUAAACCAAUAGAUUGCAUCGGUUUAAAAGGCAAGACCGUCAAAUUGCGGGAAAGGGGUCAACAGCCGUUCAGUACCAAGUCUCAGGGGAAACUUUGAGAUGGCCUUGCAAAGGGUAUGGUAAUAAGCUGACGGACAUGGUCCUAACCACGCAGCCAAGUCCUAAGUCAACAGAUCUUCUGUUGAUAUGGAUGCAGUUCACAGACUAAAUGUCGGUCGGGGAAGAUGUAUUCUUCUCAUAAGAUAUAGUCGGACCUCUCCUUAAUGGGAGCUAGCGGAUGAAGUGAUGCAACACUGGAGCCGCUGGGAACUAAUUUGUAUGCGAAAGUAUAUUGAUUAGUUUUGGAGUACUCGUGGUCG
How it was run: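 DiMSum derived fitness as the error-weighted combination of fold changes across replicates, kanamycin versus no kanamycin, normalised to wild type. E. coli BL21(DE3) held the library, which randomised all eight P1ex-region intron nucleotides within the knt kanamycin-resistance gene on pET-22b(+). Six replicate transformations grew overnight at 37°C or 30°C on LB agar with or without 25 μg/mL kanamycin, also containing 100 μg/mL carbenicillin, 50 μM IPTG and 0.2% rhamnose, and pooled colonies were amplicon-sequenced on an Illumina HiSeq 2500.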

Sequence	self-splicing fitness (ln) (30 °C)	self-splicing fitness (ln) (37 °C)
UCUAAGCAAUAUUACGAGGA	-3.5 ± 0.4	-2.72 ± 0.44
UCUAAGCAAUAUUACGAGGU	-2.8 ± 0.27	-0.819 ± 0.17
UCUAAGCAAUAUUACGAUUC	-3.14 ± 0.16	-2.83 ± 0.23
UCUAAGCAAUAUUACGCACG	-1.11 ± 0.19	-1.8 ± 0.23
UCUAAGCAAUAUUACGCCGG	-1.15 ± 0.13	-0.186 ± 0.15
UCUAAGCAAUAUUACGCCUA	–	-1.36 ± 0.26
UCUAAGCAAUAUUACGCGAC	–	-2.84 ± 0.36
UCUAAGCAAUAUUACGCGUA	-3.11 ± 0.2	-2.27 ± 0.23
UCUAAGCAAUAUUACGCUAU	-3.62 ± 0.31	-3.37 ± 0.28
UCUAAGCAAUAUUACGGAUG	-2.9 ± 0.26	-1.99 ± 0.29
UCUAAGCAAUAUUACGGAUU	–	-2.31 ± 0.23
UCUAAGCAAUAUUACGGGAA	-2.29 ± 0.22	-1.76 ± 0.14
UCUAAGCAAUAUUACGGUCU	-3.41 ± 0.21	-3.34 ± 0.31
UCUAAGCAAUAUUACGGUGA	-0.587 ± 0.099	-0.245 ± 0.1
UCUAAGCAAUAUUACGUAGA	-1.2 ± 0.098	-0.771 ± 0.15
UCUAAGCAAUAUUACGUCAA	-2.57 ± 0.24	-1.77 ± 0.27
UCUAAGCAAUAUUACGUGUG	-1.02 ± 0.075	-0.603 ± 0.1
UCUAAGCAAUAUUACGUUCA	-2.37 ± 0.17	-1.56 ± 0.15
UCUCAGCAAUAUUACGACUA	-1.87 ± 0.12	-1.37 ± 0.12
UCUCAGCAAUAUUACGACUG	-2.79 ± 0.17	-3.11 ± 0.28
UCUCAGCAAUAUUACGAGAU	-4.62 ± 0.46	-2.85 ± 0.35
UCUCAGCAAUAUUACGAGCA	-0.507 ± 0.081	0.222 ± 0.12
UCUCAGCAAUAUUACGAGCG	-0.123 ± 0.091	-0.0856 ± 0.1
UCUCAGCAAUAUUACGAGGU	–	-1.53 ± 0.25
UCUCAGCAAUAUUACGCACC	-2.18 ± 0.42	–
UCUCAGCAAUAUUACGCAGC	-3.54 ± 0.24	-2.32 ± 0.21

Sequence	self-splicing fitness (ln) (30 °C)	self-splicing fitness (ln) (37 °C)
UCUCAGCAAUAUUACGCCGG	-2.33 ± 0.21	–
UCUCAGCAAUAUUACGCCUG	–	-2.27 ± 0.47
UCUCAGCAAUAUUACGCUAA	-3.89 ± 0.33	-2.23 ± 0.25
UCUCAGCAAUAUUACGCUGU	-2.3 ± 0.21	-1.17 ± 0.31
UCUCAGCAAUAUUACGGAGA	-3.23 ± 0.41	-3.43 ± 0.39
UCUCAGCAAUAUUACGGCCA	-2.65 ± 0.19	-1.69 ± 0.21
UCUCAGCAAUAUUACGGGAC	-2.31 ± 0.24	-2.87 ± 0.38
UCUCAGCAAUAUUACGGUAG	-2.3 ± 0.098	-1.99 ± 0.15
UCUCAGCAAUAUUACGGUCC	-3 ± 0.31	–
UCUCAGCAAUAUUACGUAGC	-1.31 ± 0.17	-1.16 ± 0.23
UCUCAGCAAUAUUACGUCGA	-2.07 ± 0.11	-0.925 ± 0.12
UCUCAGCAAUAUUACGUGAG	-1.2 ± 0.054	-0.483 ± 0.072
UCUCAGCAAUAUUACGUUUA	-2.98 ± 0.18	-1.08 ± 0.13
UCUGAGCAAUAUUACGAAUA	–	-1.82 ± 0.48
UCUGAGCAAUAUUACGACAG	-1.02 ± 0.12	-1.04 ± 0.15
UCUGAGCAAUAUUACGACCU	–	-2.62 ± 0.31
UCUGAGCAAUAUUACGACUA	-2.49 ± 0.19	-1.64 ± 0.17
UCUGAGCAAUAUUACGACUU	-3.11 ± 0.33	–
UCUGAGCAAUAUUACGAGCG	-1.93 ± 0.15	-2.37 ± 0.39
UCUGAGCAAUAUUACGAGGU	-3.18 ± 0.23	–
UCUGAGCAAUAUUACGAUGC	–	-0.729 ± 0.36
UCUGAGCAAUAUUACGCAUU	-3.77 ± 0.37	-2.15 ± 0.31
UCUGAGCAAUAUUACGCCAG	–	-0.871 ± 0.46
UCUGAGCAAUAUUACGCCUU	-3.06 ± 0.12	-1.54 ± 0.14
UCUGAGCAAUAUUACGCGUU	-4.91 ± 0.45	-2.63 ± 0.28
UCUGAGCAAUAUUACGCUAA	-3.49 ± 0.34	–

Sequence	self-splicing fitness (ln) (30 °C)	self-splicing fitness (ln) (37 °C)
UCUGAGCAAUAUUACGGAAA	-3.08 ± 0.18	-1.64 ± 0.15
UCUGAGCAAUAUUACGGGCU	–	-3.79 ± 0.42
UCUGAGCAAUAUUACGUACC	-3.19 ± 0.41	-1.96 ± 0.31
UCUGAGCAAUAUUACGUCAU	-3.81 ± 0.35	-2.76 ± 0.2
UCUGAGCAAUAUUACGUCGC	-4.03 ± 0.37	-2.54 ± 0.36
UCUGAGCAAUAUUACGUCUA	-1.67 ± 0.18	-2.17 ± 0.26
UCUGAGCAAUAUUACGUGAG	-1.86 ± 0.11	-0.646 ± 0.097
UCUGAGCAAUAUUACGUGUC	-4.14 ± 0.32	–
UCUGAGCAAUAUUACGUUAA	-3.47 ± 0.29	-0.512 ± 0.15
UCUGAGCAAUAUUACGUUGU	-4.12 ± 0.21	-1.96 ± 0.18
UCUUAGCAAUAUUACGACAA	-2.45 ± 0.32	-1.18 ± 0.29
UCUUAGCAAUAUUACGACCG	-1.95 ± 0.36	-0.528 ± 0.34
UCUUAGCAAUAUUACGACUA	–	-2.26 ± 0.45
UCUUAGCAAUAUUACGAGCG	-1.36 ± 0.13	-0.498 ± 0.15
UCUUAGCAAUAUUACGAGGG	-1.87 ± 0.16	-2.1 ± 0.25
UCUUAGCAAUAUUACGAUAA	-2.73 ± 0.46	-2.27 ± 0.4
UCUUAGCAAUAUUACGAUCC	-1.98 ± 0.38	–
UCUUAGCAAUAUUACGCAGA	-1.55 ± 0.46	-1.36 ± 0.29
UCUUAGCAAUAUUACGCCAG	-2.74 ± 0.27	–
UCUUAGCAAUAUUACGCCUU	–	-1.86 ± 0.3
UCUUAGCAAUAUUACGCGAG	-2.25 ± 0.17	-2.92 ± 0.28
UCUUAGCAAUAUUACGGACA	-2.63 ± 0.2	-1.19 ± 0.14
UCUUAGCAAUAUUACGGAGU	-3.29 ± 0.13	-2.28 ± 0.11
UCUUAGCAAUAUUACGGGUA	-1.46 ± 0.076	-0.741 ± 0.084
UCUUAGCAAUAUUACGGGUG	-0.927 ± 0.055	-0.165 ± 0.069
UCUUAGCAAUAUUACGGUUA	–	-2.37 ± 0.39

Sequence	self-splicing fitness (ln) (30 °C)	self-splicing fitness (ln) (37 °C)
UCUUAGCAAUAUUACGUAAC	-3.34 ± 0.26	-1.95 ± 0.32
UCUUAGCAAUAUUACGUACA	-2.58 ± 0.19	-1.28 ± 0.16
UCUUAGCAAUAUUACGUAGC	-3.98 ± 0.46	-1.98 ± 0.21
UCUUAGCAAUAUUACGUCAG	-1.01 ± 0.16	-1.28 ± 0.2
UCUUAGCAAUAUUACGUGUA	-0.944 ± 0.17	-1.19 ± 0.2
UCUUAGCAAUAUUACGUUCG	-2.21 ± 0.11	-1.38 ± 0.18
UCUUAGCAAUAUUACGUUUG	-3.07 ± 0.17	-2.48 ± 0.27
UGAAAGCAAUAUUACGAAAC	–	-1.79 ± 0.47
UGAAAGCAAUAUUACGAAGC	–	-2.07 ± 0.28
UGAAAGCAAUAUUACGAAUG	-0.602 ± 0.066	-0.0842 ± 0.078
UGAAAGCAAUAUUACGAAUU	-1.7 ± 0.26	-1.66 ± 0.29
UGAAAGCAAUAUUACGAGCA	-0.581 ± 0.089	0.406 ± 0.11
UGAAAGCAAUAUUACGAGUU	-3.31 ± 0.15	-0.915 ± 0.095
UGAAAGCAAUAUUACGAUGG	-1.59 ± 0.086	-0.618 ± 0.11
UGAAAGCAAUAUUACGCAUC	–	-3.14 ± 0.28
UGAAAGCAAUAUUACGCUCC	-1.4 ± 0.12	-0.227 ± 0.14
UGAAAGCAAUAUUACGCUUC	-2.32 ± 0.42	-2.29 ± 0.29
UGAAAGCAAUAUUACGGACA	-0.0695 ± 0.088	-0.28 ± 0.096
UGAAAGCAAUAUUACGGCGU	-1.12 ± 0.095	0.0159 ± 0.11
UGAAAGCAAUAUUACGGGCA	-0.0393 ± 0.081	0.386 ± 0.092
UGAAAGCAAUAUUACGGUUC	-4.11 ± 0.26	-2.41 ± 0.23
UGAAAGCAAUAUUACGUAAG	-0.503 ± 0.087	-0.0639 ± 0.12
UGAAAGCAAUAUUACGUCCC	-2.54 ± 0.45	–
UGAAAGCAAUAUUACGUUCA	-2.03 ± 0.13	-1.48 ± 0.14
UGAAAGCAAUAUUACGUUCG	-1.51 ± 0.094	-0.54 ± 0.11

Reference: the supplement of paper PMC7877785
